According to patent EP4667483A1 (JCR Pharmaceuticals Co., Ltd., dated 2024):
Numbered stars: 1 amine (or outer) side, 2 acyl side, 3 side chain; on linkers, the order of the positions; unused ones are H or OH. Bridge positions count the residues as written; N and C are the ends. Square brackets hold non-standard residues; d marks the D form. Ends that are not written are not given here. * marks the point of attachment. F4aao = 4-(carboxymethoxy)-L-phenylalanine, O=C([C@H](Cc1ccc(OCC(=O)[*:3])cc1)N[*:1])[*:2]; NH(1-deoxy-D-glucityl) = OC[C@@H](O)[C@@H](O)[C@H](O)[C@@H](O)CN*; PEG4c = amino-tetraoxa (PEG4) carboxylic acid spacer; NMePhe(4-COOH) = CN[C@@H](Cc1ccc(C(=O)O)cc1)C(=O)O; NMePhe(3-Cl) = CN[C@@H](Cc1cccc(Cl)c1)C(=O)O; Piperazinyl(4-CH2COOH) = O=C(O)CN1CCN(*)CC1; 3Pal(6-NH2) = Nc1ccc(C[C@H](N)C(=O)O)cn1; NMeW = CN[C@@H](Cc1c[nH]c2ccccc12)C(=O)O; NMeY = CN[C@@H](Cc1ccc(O)cc1)C(=O)O; Nva(3-Et) = CCC(CC)[C@H](N)C(=O)O; NMeF = CN[C@@H](Cc1ccccc1)C(=O)O

B1: 894_0607 (peptide)
peptide: AVXVXNYYIIKRXXC
modifications: not fully specified; as printed: A-V-MeF3C-V-W1Me-N-Y-Y-I-I-K-R-4Py-MeY-C; linker PEG4c; cyclic (ClAc-Ala1 thioether to Cys15)
B2: 894_3436 (peptide)
peptide: AVXVWNYYIIRRXXC
modifications: as printed: A-V-MeF-V-W-N-Y-Y-I-I-R-R-F3COO(PEG8Me)-MeY-C; linker G-KN3; cyclic (ClAc-Ala1 thioether to Cys15)
B3: 894_0615 (peptide)
peptide: AVXVXNYYIIKRYXC
modifications: as printed: A-V-Me3Py-V-MeW-N-Y-Y-I-I-K-R-Y-MeY-C; linker PEG4c; cyclic (ClAc-Ala1 thioether to Cys15)
B4: 894_0601 (peptide)
peptide: AVXVWNXYIIKRYXC
modifications: not fully specified; as printed: A-V-MeF-V-W-N-3Py6NH2-Y-I-I-K-R-Y-MeY-C; linker PEG4c; cyclic (ClAc-Ala1 thioether to Cys15)
B5: 894_0616 (peptide)
peptide: AVXVXNYYXIKRYXC
modifications: as printed: A-V-Me3Py-V-MeW-N-Y-Y-Eva-I-K-R-Y-MeY-C; linker PEG4c; cyclic (ClAc-Ala1 thioether to Cys15)
B6: 894_0602 (peptide)
peptide: AVXVXNXYIIKRYXC
modifications: not fully specified; as printed: A-V-MeF-V-MeW-N-3Py6NH2-Y-I-I-K-R-Y-MeY-C; linker PEG4c; cyclic (ClAc-Ala1 thioether to Cys15)

target: T1, human transferrin receptor (hTfR) (human, UniProt P02786 89-760); assay: SPR, pH 6.0
T1 construct: a His tag is implied by the NTA chip and the anti-His capture; also called human TfR; TfR1
T1 sequence (P02786 89-760 limits assumed): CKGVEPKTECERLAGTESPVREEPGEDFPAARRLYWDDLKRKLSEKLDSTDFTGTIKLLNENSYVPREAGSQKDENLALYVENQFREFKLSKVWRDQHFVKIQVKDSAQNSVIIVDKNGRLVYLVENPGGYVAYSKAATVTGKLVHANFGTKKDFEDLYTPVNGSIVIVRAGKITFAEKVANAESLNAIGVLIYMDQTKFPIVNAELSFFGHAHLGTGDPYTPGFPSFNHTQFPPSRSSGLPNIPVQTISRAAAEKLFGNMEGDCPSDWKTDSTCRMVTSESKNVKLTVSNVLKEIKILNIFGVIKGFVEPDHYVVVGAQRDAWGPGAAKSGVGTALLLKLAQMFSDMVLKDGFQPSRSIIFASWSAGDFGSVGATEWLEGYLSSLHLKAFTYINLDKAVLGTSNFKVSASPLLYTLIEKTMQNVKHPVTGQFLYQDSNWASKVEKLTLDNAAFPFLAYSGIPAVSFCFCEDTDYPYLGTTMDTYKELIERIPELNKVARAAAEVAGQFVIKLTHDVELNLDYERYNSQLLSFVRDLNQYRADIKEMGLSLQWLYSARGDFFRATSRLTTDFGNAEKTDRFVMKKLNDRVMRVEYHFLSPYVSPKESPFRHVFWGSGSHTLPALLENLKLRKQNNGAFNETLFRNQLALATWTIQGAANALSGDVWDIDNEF

In the case of {CH2CO}-AV[NMePhe(3-Cl)]VWNY[F4aao](Piperazinyl(4-CH2COOH))IIE(NH(1-deoxy-D-glucityl))QF[NMeY]C-{PEG4c-NH2} (thioether N-15) [894_0510 (SEQ ID NO: 37)], the Kd is reported as 27.9 nM.

target: T1, human transferrin receptor (hTfR); assay: SPR, pH 7.4

Binder {CH2CO}-AV[NMePhe(3-Cl)]VWNY[F4aao](Piperazinyl(4-CH2COOH))IIE(NH(1-deoxy-D-glucityl))QF[NMeY]C-{PEG4c-NH2} (thioether N-15) [894_0510 (SEQ ID NO: 37)] has a Kd of 1.54 nM.

target: T1, human transferrin receptor (hTfR); assay: SPR, KD pH 6.0 / KD pH 7.4

{CH2CO}-AV[NMePhe(3-Cl)]VWNY[F4aao](Piperazinyl(4-CH2COOH))IIE(NH(1-deoxy-D-glucityl))QF[NMeY]C-{PEG4c-NH2} (thioether N-15) [894_0510 (SEQ ID NO: 37)] was tested, and the “dependency KD pH6.0/7.4” value was 18.1.

target: T1, human transferrin receptor (hTfR); assay: SPR, koff pH 6.0 / koff pH 7.4

In the case of {CH2CO}-AV[NMePhe(3-Cl)]VWNY[F4aao](Piperazinyl(4-CH2COOH))IIE(NH(1-deoxy-D-glucityl))QF[NMeY]C-{PEG4c-NH2} (thioether N-15) [894_0510 (SEQ ID NO: 37)], the “dependency koff pH6.0/7.4” value is reported as 33.9.

target: T2, human transferrin receptor (hTfR) (human, UniProt P02786 89-760); assay: SPR, KD at pH 6.0 over KD at pH 7.4
T2 construct: Recombinant hTfR; at pH 7.4 captured on the chip by an anti-His tag antibody, at pH 6.0 immobilized on an NTA chip, so it carries a His tag; also called human TfR; TfR1
T2 sequence (P02786 89-760 limits assumed): as above

Compared with B1, B2 is lower in “dependency KD pH6.0/7.4” value: 3.74 for the first, 3.36 for the second.

Going from {CH2CO}-AV[NMeF]V[NMeW]NYY[Nva(3-Et)]IKRY[NMePhe(4-COOH)]C (thioether N-15; not fully specified (C-terminus)) [894_0593] to {CH2CO}-AV[NMePhe(3-Cl)]V[NMeW]NYY[Nva(3-Et)]SKRY[NMeY]C (thioether N-15; not fully specified (C-terminus)) [894_0612], the “dependency KD pH6.0/7.4” value falls from 2.64 to 2.33.

Going from {CH2CO}-AV[NMeF]V[NMeW]NYY[Nva(3-Et)]SKRY[NMeY]C (thioether N-15; not fully specified (C-terminus)) [894_0611] to B3, the “dependency KD pH6.0/7.4” value falls from 2.18 to 0.92.

Compared with {CH2CO}-AV[NMeF]VWN[3Pal(6-NH2)]YIIKRY[NMePhe(4-COOH)]C (thioether N-15; not fully specified (C-terminus)) [894_0603], B4 is lower in “dependency KD pH6.0/7.4” value: 4.79 for the first, 3.28 for the second.

Compared with B5, {CH2CO}-AV[NMeF]V[NMeW]N[3Pal(6-NH2)]YIIKRY[NMePhe(4-COOH)]C (thioether N-15; not fully specified (C-terminus)) [894_0604] is higher in “dependency KD pH6.0/7.4” value: 1.22 for the first, 4.76 for the second.

In the case of B6, the “dependency KD pH6.0/7.4” value is reported as 2.97.

target: T2, human transferrin receptor (hTfR); assay: SPR, koff at pH 6.0 over koff at pH 7.4

Compared with B1, B2 is lower in “dependency koff pH6.0/7.4” value: 7.49 for the first, 5.75 for the second.

First: {CH2CO}-AV[NMeF]V[NMeW]NYY[Nva(3-Et)]IKRY[NMePhe(4-COOH)]C (thioether N-15; not fully specified (C-terminus)) [894_0593]
Second: {CH2CO}-AV[NMePhe(3-Cl)]V[NMeW]NYY[Nva(3-Et)]SKRY[NMeY]C (thioether N-15; not fully specified (C-terminus)) [894_0612]
The “dependency koff pH6.0/7.4” value of the first is lower: 3.72 for the first, 6.71 for the second.

Going from {CH2CO}-AV[NMeF]V[NMeW]NYY[Nva(3-Et)]SKRY[NMeY]C (thioether N-15; not fully specified (C-terminus)) [894_0611] to B3, the “dependency koff pH6.0/7.4” value falls from 4.83 to 2.87.

Compared with {CH2CO}-AV[NMeF]VWN[3Pal(6-NH2)]YIIKRY[NMePhe(4-COOH)]C (thioether N-15; not fully specified (C-terminus)) [894_0603], B4 is lower in “dependency koff pH6.0/7.4” value: 11.3 for the first, 8.89 for the second.

Compared with B5, {CH2CO}-AV[NMeF]V[NMeW]N[3Pal(6-NH2)]YIIKRY[NMePhe(4-COOH)]C (thioether N-15; not fully specified (C-terminus)) [894_0604] is higher in “dependency koff pH6.0/7.4” value: 3.41 for the first, 7.83 for the second.

With B6 the “dependency koff pH6.0/7.4” value was 6.5.

target: T2, human transferrin receptor (hTfR); assay: SPR (Biacore T200), pH 6.0, hTfR on chip

First: B1
Second: B2
The Kd of the first is 3.3-fold lower: 2.04 nM for the first, 6.72 nM for the second. The first binds more tightly here.

{CH2CO}-AV[NMeF]V[NMeW]NYY[Nva(3-Et)]IKRY[NMePhe(4-COOH)]C (thioether N-15; not fully specified (C-terminus)) [894_0593] and {CH2CO}-AV[NMePhe(3-Cl)]V[NMeW]NYY[Nva(3-Et)]SKRY[NMeY]C (thioether N-15; not fully specified (C-terminus)) [894_0612] are within 1.5-fold of each other in Kd: 9.52 nM for the first, 13.2 nM for the second.

First: {CH2CO}-AV[NMeF]V[NMeW]NYY[Nva(3-Et)]SKRY[NMeY]C (thioether N-15; not fully specified (C-terminus)) [894_0611]
Second: B3
The Kd of the first is 4.3-fold higher: 66.3 nM for the first, 15.3 nM for the second. The second binds more tightly here.

First: {CH2CO}-AV[NMeF]VWN[3Pal(6-NH2)]YIIKRY[NMePhe(4-COOH)]C (thioether N-15; not fully specified (C-terminus)) [894_0603]
Second: B4
The Kd of the first is 2-fold higher: 35 nM for the first, 17.4 nM for the second.

First: B5
Second: {CH2CO}-AV[NMeF]V[NMeW]N[3Pal(6-NH2)]YIIKRY[NMePhe(4-COOH)]C (thioether N-15; not fully specified (C-terminus)) [894_0604]
The Kd of the first is 3-fold higher: 50.8 nM for the first, 16.7 nM for the second. The second binds more tightly here.

Work on B6 yielded a Kd of 18.9 nM.

target: T2, human transferrin receptor (hTfR); assay: SPR (Biacore T200), pH 7.4, hTfR on chip

Compared with B1, B2 is 3.7-fold higher in Kd: 0.546 nM for the first, 2 nM for the second.

Compared with {CH2CO}-AV[NMeF]V[NMeW]NYY[Nva(3-Et)]IKRY[NMePhe(4-COOH)]C (thioether N-15; not fully specified (C-terminus)) [894_0593], {CH2CO}-AV[NMePhe(3-Cl)]V[NMeW]NYY[Nva(3-Et)]SKRY[NMeY]C (thioether N-15; not fully specified (C-terminus)) [894_0612] is 1.6-fold higher in Kd: 3.61 nM for the first, 5.67 nM for the second.

Compared with {CH2CO}-AV[NMeF]V[NMeW]NYY[Nva(3-Et)]SKRY[NMeY]C (thioether N-15; not fully specified (C-terminus)) [894_0611], B3 is 1.8-fold lower in Kd: 30.4 nM for the first, 16.6 nM for the second.

{CH2CO}-AV[NMeF]VWN[3Pal(6-NH2)]YIIKRY[NMePhe(4-COOH)]C (thioether N-15; not fully specified (C-terminus)) [894_0603] and B4 are within 1.5-fold of each other in Kd: 7.31 nM for the first, 5.3 nM for the second.

First: B5
Second: {CH2CO}-AV[NMeF]V[NMeW]N[3Pal(6-NH2)]YIIKRY[NMePhe(4-COOH)]C (thioether N-15; not fully specified (C-terminus)) [894_0604]
The Kd of the first is 12-fold higher: 41.7 nM for the first, 3.51 nM for the second.

B6 gave a Kd of 6.37 nM.
